B1: F11 ScFv antibody (phage-displayed) (scFv)
scFv: QVQLQESGGGLLQPGGSLRLSCAASRFTFSNYAMSWVRQAPGKGLEWVSAISGSGASTYYADSVKGRFTISRDNSKNTLYLQMNSLRAEDTAVYYCSNLYGDYDYWGQGTLVTVSSGGGGGSGGGGSGGGGSQSVLTQPASVSGSPGQSITISCTGTSSDVGGYNYVSWYQQHPGKAPKLMIYDVSNRPSGVSNRFSGSKSGNTASLTISGLQAEDEADYYCSSYTSSSTLLFGGGTKLTVLG
notes: The fusion to the phage coat protein is not described
B2: F11 ScFv antibody: human anti-c-Met ScFv comprising SEQ ID NO:29; tested as phage-displayed clone (protein)
scFv: B1 scFv
modifications: phage-displayed; synthetic F11 ScFv sequence
B3: H5 ScFv antibody (phage-displayed) (scFv)
scFv: QVQLQESGGGLVQPGGSLRLSCAASGFTFSNYAMSWVRQAPGKGLEWVSAISGSGGSTYYADSVKGRFTISRDNSKNTLYLQMNSLRAEDTAVYYCAKDRFRAAAYWGQGTLVTVSSGGGGGSGGGGSGGGGSQSVLTQPPSVSAAPGQKVTISCTGSSSNIGAGYDVHWYQQLPGTAPKLLIYGNSNRPSGVPDRFSGSKSGTSASLAISGLQSEDEADYYCAAWDDILNGEIFGGGTKVTVLG
notes: as for B1
B4: H5 ScFv antibody: human anti-c-Met ScFv comprising SEQ ID NO:32; tested as phage-displayed clone (protein)
scFv: B3 scFv
modifications: phage-displayed; synthetic H5 ScFv sequence
B5: F1 ScFv antibody: human anti-c-Met ScFv comprising SEQ ID NO:28; tested as phage-displayed clone (protein)
scFv: QVQLVQSGAEVKKPGASVKVSCKASGYTFTDYYMHWVRQAPGEGLEWMGWMNPNSGGTNYAQKFQGRVTMTRDTSISTAYMELSRLRSDDTAVYYCARSHYWDSWSPGTLVTVSSGGGGGSGGGGSGGGGSSALTQPASVSGSPGQSITISCTGTSGDVGGYNYVSWYQQHPGKAPKLMIYDVSNRPSGVSNRFSGSKSGNTASLTISGLQAEDEADYYCTSYAGSRNLVFGGGTKLTVLG
modifications: phage-displayed; synthetic F1 ScFv sequence
B6: E9 ScFv antibody (phage-displayed) (scFv)
scFv: QVQLQESGGGVVQPGRSLRLSCAASGFTFSSYGMHWVRQAPGKGLEWVSAIGSSGGSTHDADTVKGRFTISRDNAKNSLYLQMNSLRAEDTAVYYCARDRARGFDYWGQGTLVTVSSGGGGGSGGGGSGGGGSEIVLTQSPSTLSASIGDRVTITCRASQGISSYLAWYQQKPGKAPKLLIYGASSLQSGVPSRFSGRGSGADFTLTISSLQPEDFATYYCQQLISYPLTFGGGTKVEIKR
notes: as for B1
B7: E9 ScFv antibody: human anti-c-Met ScFv comprising SEQ ID NO:27; tested as phage-displayed clone (protein)
scFv: B6 scFv
modifications: phage-displayed; synthetic E9 ScFv sequence
B8: C2 ScFv antibody (phage-displayed) (scFv)
scFv: QVQLQESGGGLVQPGGSLRLSCAASGFTFSSYAMSWVRQAPGKGLEWVSAISGSGGSTYYADSVKGRFTISRDNSKNTLYLQMNSLRAEDTAVYYCASQHVGEQSRYFDYWGQGTLVTVSSGGGGGSGGGGSGGGGSDIVMTQSPSSLSASIGDRVTITCRASHSISSYVNWYQKKPGKAPNLLIYAASYLPRGVPSRFSGSGLGTDFTLTISNLQPEDFATYYCQESYSTPYSFGQGTKVDIKR
notes: as for B1
B9: C2 ScFv antibody: human anti-c-Met ScFv comprising SEQ ID NO:26; tested as phage-displayed clone (protein)
scFv: B8 scFv
modifications: phage-displayed; synthetic C2 ScFv sequence
B10: G1 ScFv antibody (phage-displayed) (scFv)
scFv: QVQLQESGGGVVQPGGSLRLSCAASGFTFSSYSMNWVRQAPGKGLEWVSSISSSSSYIYYADSVKGRFTISRDNAKNSLYLQMNSLRAEDTAVYYCARDLPSDDYGDYDYYYYGMDVWGQGTTVTVSSGGGGGSGGGGSGGGGSQSVLTQPPSASGTPGQRVTLFCSGSSSNIASNSVKWYQQPPQRAPKLLMFSDDQRPSGVPVRFSASKSGTSASLAISGLQSEDEADYYCAAWDDSLNAEVFGGGTKVTVLG
notes: as for B1
B11: G1 ScFv antibody: human anti-c-Met ScFv comprising SEQ ID NO:30; tested as phage-displayed clone (protein)
scFv: B10 scFv
modifications: phage-displayed; synthetic G1 ScFv sequence

Tests used:
[1] = target: T1, c-MET on the surface of Hcc827 or Hcc827-GR6 cells (human, UniProt P08581 25-1390); experiment: phage flow cytometry on Hcc827-GR6 cells, bound phage detected with FITC anti-M13 antibody
T1 construct: whole, on cells; The cells express the receptor endogenously, and MET is amplified in Hcc827-GR6; also called cell surface MET
T1 sequence (P08581 25-1390): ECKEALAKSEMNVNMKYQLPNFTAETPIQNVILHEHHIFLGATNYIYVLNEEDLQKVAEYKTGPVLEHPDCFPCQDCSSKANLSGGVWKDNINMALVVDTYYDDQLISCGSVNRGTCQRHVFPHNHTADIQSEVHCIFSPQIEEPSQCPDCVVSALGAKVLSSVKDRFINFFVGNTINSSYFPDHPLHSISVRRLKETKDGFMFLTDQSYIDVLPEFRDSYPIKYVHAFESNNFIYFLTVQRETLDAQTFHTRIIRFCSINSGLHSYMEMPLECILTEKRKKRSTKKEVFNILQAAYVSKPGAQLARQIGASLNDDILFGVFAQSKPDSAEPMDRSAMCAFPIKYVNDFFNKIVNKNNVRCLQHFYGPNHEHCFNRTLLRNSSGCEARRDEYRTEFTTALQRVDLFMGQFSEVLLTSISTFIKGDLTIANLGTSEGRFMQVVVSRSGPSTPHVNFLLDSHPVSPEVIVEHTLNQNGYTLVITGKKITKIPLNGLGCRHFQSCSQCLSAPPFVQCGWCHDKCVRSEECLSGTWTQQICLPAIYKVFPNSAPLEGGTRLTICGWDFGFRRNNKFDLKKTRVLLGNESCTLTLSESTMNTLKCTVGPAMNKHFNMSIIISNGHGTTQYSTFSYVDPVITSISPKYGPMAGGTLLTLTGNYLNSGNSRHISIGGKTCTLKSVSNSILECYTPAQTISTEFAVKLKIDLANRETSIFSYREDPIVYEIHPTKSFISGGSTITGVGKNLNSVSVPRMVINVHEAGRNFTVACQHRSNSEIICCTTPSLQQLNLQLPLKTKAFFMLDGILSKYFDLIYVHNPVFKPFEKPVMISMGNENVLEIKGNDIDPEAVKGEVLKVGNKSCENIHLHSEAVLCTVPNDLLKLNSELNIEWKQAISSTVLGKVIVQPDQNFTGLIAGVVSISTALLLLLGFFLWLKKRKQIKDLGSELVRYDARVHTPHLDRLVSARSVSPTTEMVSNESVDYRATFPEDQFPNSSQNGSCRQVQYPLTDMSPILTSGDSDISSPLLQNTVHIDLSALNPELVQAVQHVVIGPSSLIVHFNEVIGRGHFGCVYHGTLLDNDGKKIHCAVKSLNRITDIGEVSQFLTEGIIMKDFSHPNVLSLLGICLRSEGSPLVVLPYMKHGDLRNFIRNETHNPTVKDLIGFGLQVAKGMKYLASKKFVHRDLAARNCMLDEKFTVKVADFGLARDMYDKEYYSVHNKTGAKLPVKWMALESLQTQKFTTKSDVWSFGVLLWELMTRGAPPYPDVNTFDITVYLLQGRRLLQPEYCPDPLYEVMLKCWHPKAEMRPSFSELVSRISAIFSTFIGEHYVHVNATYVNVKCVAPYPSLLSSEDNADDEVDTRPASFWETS
Protocol: (§1) For phage antibodies, flow cytometry was used to confirm their binding to c-MET expressing cells. Bacteria culture containing phage was concentrated 30 times into PBS according to published method (Antibody Engineering Methods and Protocols, Benny K. C. Lo). $2 \sim 5 \times 10^5$ c-MET positive Hcc827 or Hcc827-GR6 cells (Engelman et. al, Science, 2007) were incubated with 100 ul concentrated phage and 30 ul 4% milk-PBS on ice for 1 hour. Cells were then washed using flow buffer (PBS, 1% FBS, 2 mM EDTA), and the binding phage antibodies were detected by FITC conjugated anti-M13 monoclonal antibody (Santa Cruz Biotechnology, Cat# sc-53005 Fitc).

cell surface MET = target: T2, cell surface MET (Homo sapiens, UniProt P08581); experiment: Phage flow cytometry for binding to c-MET expressing cells; conditions: phage antibodies; Hcc827 or Hcc827-GR6 cells; FITC anti-M13 detection
T2 construct: endogenous in cells; host or cells: Hcc827 or Hcc827-GR6
T2 sequence (P08581 25-1390): as above
Protocol: as §1, with “2˜5×105” for “$2 \sim 5 \times 10^5$”
93 clones were randomly picked after 3 rounds of panning. The phage-containing supernatant was used for phage ELISA. Top 64 clones with highest A405 signal were sequenced, among which 19 distinctive clones with different sequences were identified. These distinctive clones were then tested for binding to cell surface MET by phage flow experiments. 8 of these clones show good binding to cell surface MET and were selected for the subsequent purification and characterizations.

Row | Molecule | binding result [1] | binding to cell surface MET (cell surface MET)
1 | B1 | binds | 
2 | B2 |  | can bind to cell surface MET
3 | B3 | binds | 
4 | B4 |  | can bind to cell surface MET
5 | B5 |  | can bind to cell surface MET
6 | B6 | binds | 
7 | B7 |  | can bind to cell surface MET
8 | B8 | binds | 
9 | B9 |  | can bind to cell surface MET
10 | B10 | binds | 
11 | B11 |  | can bind to cell surface MET

Source: patent US10407503B2, “Fully human antibodies and fragments recognizing human c-Met” (THE REGENTS OF THE UNIVERSITY OF CALIFORNIA, priority 2012, dated 2019)
